{"source": "paper doi:10.1101/2025.06.09.658552", "key": {"[1]": {"biological_target": "alpha/beta-tubulin (Saccharomyces cerevisiae) (UniProt P09733)", "conditions": "cited from earlier work"}, "[2]": {"biological_target": "alpha/beta-tubulin (Saccharomyces cerevisiae) (UniProt P09733)", "conditions": "cited from earlier work", "remark": "listed apart in the source"}, "[3]": {"biological_target": "biotinylated polymerization-blocked yeast αβ-tubulin, LR1 (β: T175R,V179R) (yeast) (UniProt P09733)", "assay": "BLI; biotinylated polymerization-blocked tubulin immobilised on streptavidin (SA) biosensors, OctetR8; TOG2 2.3 to 200 nM in solution; 90 mM PIPES, 10 mM NaCl, 1 mM MgCl2, 1 mM EGTA, 1 mM GTP, 0.1% BSA, 0.005% triton X-100; association 300 s, dissociation 300 s; 1:1 model, global kinetic fit and steady-state amplitudes"}}, "note": "Values joined by “and” are separate entries in the source; they are usually repeats but may differ in a detail not shown here. Equal values may be shown once. Read-outs that look alike come from different tables or passages of the source.", "data": [{"molecule": "Stu2 TOG2 (from UniProt P46675)", "values": [{"measurement": "Kd", "setting": "[1]", "value": 160, "unit": "nM"}]}, {"molecule": "Stu2 TOG1 (from UniProt P46675)", "values": [{"measurement": "Kd", "setting": "[2]", "value": 70, "unit": "nM"}]}, {"molecule": "Stu2-TOG2 (318–560) (domain or fragment) MLPEETILDKLPKDFQERITSSKWKDRVEALEEFWDSVLSQTKKLKSTSQNYSNLLGIYGHIIQKDANIQAVALAAQSVELICDKLKTPGFSKDYVSLVFTPLLDRTKEKKPSVIEAIRKALLTICKYYDPLASSGRNEDMLKDILEHMKHKTPQIRMECTQLFNASMKEEKDGYSTLQRYLKDEVVPIVIQIVNDTQPAIRTIGFESFAILIKIFGMNTFVKTLEHLDNLKRKKIEETVKTL", "values": [{"measurement": "Kd", "setting": "[3]", "value": "8.9 nM and 9.6 nM"}, {"measurement": "koff", "setting": "[3]", "value": 0.03, "unit": "s⁻¹"}, {"measurement": "kon", "setting": "[3]", "value": "3.2e+06", "unit": "M⁻¹ s⁻¹"}]}]}
